Measurements taken from paper PMC8495200.
Blank lines part the entries; values can stand above or below the substance they belong to.

How the values were obtained:
Assay in all cases: native gel or EMSA; Blue Native PAGE, purified recombinant non-tagged proteins in 1 x PBS, 1 mM DTT, 1 mM ATP; 4-16% Bis-Tris gels, cold room, Coomassie staining
[1] = target: UBXD9^261–573, GST tag cleaved (D. discoideum)
[2] = target: UBXD9^331–573, GST tag cleaved (D. discoideum)
[3] = target: UBXD9^384–573, GST tag cleaved (D. discoideum)

stoichiometry N [1]: 6
Substance: UBXD9^261–573, GST tag cleaved (domain or fragment)

stoichiometry N [2]: 6
Substance: UBXD9^331–573, GST tag cleaved (domain or fragment)

stoichiometry N [3]: 6
Substance: UBXD9^384–573, GST tag cleaved (domain or fragment)
